± gives the uncertainty stated by the source.

First the molecules themselves.
B1: POU domain, class 3, transcription factor 1, residues 247 to 324; numbered along this chain, Q03052 (parent)
chain: EDAPSSDDLEQFAKQFKQRRIKLGFTQADVGLALGTLYGNVFSQTTICRFEALQLSFKNMCKLKPLLNKWLEETDSSS

The variants in this data set derive from B1. The data set is described as follows: abundance fitness (aPCA) (normalised: wild type 0, dead -1); higher = more abundant; growth selection in yeast, the domain comes from the species named. Conditions: Homo sapiens.
In the case of EDAPSSDDLEQFAKQFKQRRIKLGFTQADVGLALGTLYGNVFSQRTICRFEALQLSFKNMCKLKPLLNKWLEETDSSS, the abundance fitness worked out at 0.016 ± 0.041.
Under EDAPSSDDLEQFAKQFKQRRIKLGFTQADVGLALGTLYGNVFSQSTICRFEALQLSFKNMCKLKPLLNKWLEETDSSS stands -0.017 ± 0.052; under EDAPSSDDLEQFAKQFKQRRIKLGFTQADVGLALGTLYGNVFSQTTIYRFEALQLSFKNMCKLKPLLNKWLEETDSSS, -0.312 ± 0.15; under EDAPSSDDLEQFAKQFKQRRIKLGFTQADVGLALGTLYGNVFSQTTISRFEALQLSFKNMCKLKPLLNKWLEETDSSS, 0.144 ± 0.051.
As to EDAPSSDDLEQFAKQFKQRRIKLGFTQADVGLALGTLYGNVFSQTTITRFEALQLSFKNMCKLKPLLNKWLEETDSSS, the abundance fitness is -0.086 ± 0.074.
Under EDAPSSDDLEQFAKQFKQRRIKLGFTQADVGLALGTLYGNVFSQTTIGRFEALQLSFKNMCKLKPLLNKWLEETDSSS stands 0.032 ± 0.043; under EDAPSSDDLEQFAKQFKQRRIKLGFTQADVGLALGTLYGNVFSQTTIPRFEALQLSFKNMCKLKPLLNKWLEETDSSS, -0.175 ± 0.088.
For EDAPSSDDLEQFAKQFKQRRIKLGFTQADVGLALGTLYGNVFSQTTIVRFEALQLSFKNMCKLKPLLNKWLEETDSSS, the abundance fitness was -0.151 ± 0.057.
As to EDAPSSDDLEQFAKQFKQRRIKLGFTQADVGLALGTLYGNVFSQTTIFRFEALQLSFKNMCKLKPLLNKWLEETDSSS, the abundance fitness is 0.068 ± 0.1.
Under EDAPSSDDLEQFAKQFKQRRIKLGFTQADVGLALGTLYGNVFSQTTIKRFEALQLSFKNMCKLKPLLNKWLEETDSSS stands -0.011 ± 0.085; under EDAPSSDDLEQFAKQFKQRRIKLGFTQADVGLALGTLYGNVFSQTTIHRFEALQLSFKNMCKLKPLLNKWLEETDSSS, -0.021 ± 0.11.
Turning to EDAPSSDDLEQFAKQFKQRRIKLGFTQADVGLALGTLYGNVFSQTTIDRFEALQLSFKNMCKLKPLLNKWLEETDSSS, the abundance fitness is 0.307 ± 0.11.
Under EDAPSSDDLEQFAKQFKQRRIKLGFTQADVGLALGTLYGNVFSQTTIWRFEALQLSFKNMCKLKPLLNKWLEETDSSS stands -0.37 ± 0.082.
On to EDAPSSDDLEQFAKQFKQRRIKLGFTQADVGLALGTLYGNVFSQTTILRFEALQLSFKNMCKLKPLLNKWLEETDSSS, for which the abundance fitness is -0.04 ± 0.057.
In the case of EDAPSSDDLEQFAKQFKQRRIKLGFTQADVGLALGTLYGNVFSQTTIQRFEALQLSFKNMCKLKPLLNKWLEETDSSS, the abundance fitness turned out to be 0.064 ± 0.078.
For the variant EDAPSSDDLEQFAKQFKQRRIKLGFTQADVGLALGTLYGNVFSQTTIARFEALQLSFKNMCKLKPLLNKWLEETDSSS, the abundance fitness worked out at 0.129 ± 0.051.
With EDAPSSDDLEQFAKQFKQRRIKLGFTQADVGLALGTLYGNVFSQTTIIRFEALQLSFKNMCKLKPLLNKWLEETDSSS, the abundance fitness turned out to be 0.094 ± 0.11.
Under EDAPSSDDLEQFAKQFKQRRIKLGFTQADVGLALGTLYGNVFSQTTIERFEALQLSFKNMCKLKPLLNKWLEETDSSS stands 0.174 ± 0.058; under EDAPSSDDLEQFAKQFKQRRIKLGFTQADVGLALGTLYGNVFSQTTINRFEALQLSFKNMCKLKPLLNKWLEETDSSS, -0.21 ± 0.17; under EDAPSSDDLEQFAKQFKQRRIKLGFTQADVGLALGTLYGNVFSQTLICRFEALQLSFKNMCKLKPLLNKWLEETDSSS, -0.279 ± 0.084.
In the case of EDAPSSDDLEQFAKQFKQRRIKLGFTQADVGLALGTLYGNVFSQTIICRFEALQLSFKNMCKLKPLLNKWLEETDSSS, the abundance fitness was -0.121 ± 0.19.
As for EDAPSSDDLEQFAKQFKQRRIKLGFTQADVGLALGTLYGNVFSQTCICRFEALQLSFKNMCKLKPLLNKWLEETDSSS, the abundance fitness is -0.64 ± 0.22.
Under EDAPSSDDLEQFAKQFKQRRIKLGFTQADVGLALGTLYGNVFSQTRICRFEALQLSFKNMCKLKPLLNKWLEETDSSS stands -0.509 ± 0.079; under EDAPSSDDLEQFAKQFKQRRIKLGFTQADVGLALGTLYGNVFSQTSICRFEALQLSFKNMCKLKPLLNKWLEETDSSS, -0.191 ± 0.079; under EDAPSSDDLEQFAKQFKQRRIKLGFTQADVGLALGTLYGNVFSQTPICRFEALQLSFKNMCKLKPLLNKWLEETDSSS, -0.533 ± 0.25.
Turning to EDAPSSDDLEQFAKQFKQRRIKLGFTQADVGLALGTLYGNVFSQTQICRFEALQLSFKNMCKLKPLLNKWLEETDSSS, the abundance fitness was -0.314 ± 0.15.
For the variant EDAPSSDDLEQFAKQFKQRRIKLGFTQADVGLALGTLYGNVFSQTNICRFEALQLSFKNMCKLKPLLNKWLEETDSSS, the abundance fitness was -0.373 ± 0.19.
Take EDAPSSDDLEQFAKQFKQRRIKLGFTQADVGLALGTLYGNVFSQTKICRFEALQLSFKNMCKLKPLLNKWLEETDSSS: the abundance fitness is -0.304 ± 0.12.
In the case of EDAPSSDDLEQFAKQFKQRRIKLGFTQADVGLALGTLYGNVFSQTHICRFEALQLSFKNMCKLKPLLNKWLEETDSSS, the abundance fitness is -0.261 ± 0.16.
Regarding EDAPSSDDLEQFAKQFKQRRIKLGFTQADVGLALGTLYGNVFSQTAICRFEALQLSFKNMCKLKPLLNKWLEETDSSS, the abundance fitness is -0.125 ± 0.068.
Take EDAPSSDDLEQFAKQFKQRRIKLGFTQADVGLALGTLYGNVFSQTVICRFEALQLSFKNMCKLKPLLNKWLEETDSSS: the abundance fitness is -0.096 ± 0.066.
EDAPSSDDLEQFAKQFKQRRIKLGFTQADVGLALGTLYGNVFSQTMICRFEALQLSFKNMCKLKPLLNKWLEETDSSS: the abundance fitness amounted to 0.069 ± 0.095.
Regarding EDAPSSDDLEQFAKQFKQRRIKLGFTQADVGLALGTLYGNVFSQTDICRFEALQLSFKNMCKLKPLLNKWLEETDSSS, the abundance fitness is 0.118 ± 0.091.
For the variant EDAPSSDDLEQFAKQFKQRRIKLGFTQADVGLALGTLYGNVFSQTYICRFEALQLSFKNMCKLKPLLNKWLEETDSSS, the abundance fitness is -0.037 ± 0.2.
For EDAPSSDDLEQFAKQFKQRRIKLGFTQADVGLALGTLYGNVFSQTTICWFEALQLSFKNMCKLKPLLNKWLEETDSSS, the abundance fitness stood at 0.051 ± 0.42.

The values above are taken from the Human Domainome abundance scans (Beltran et al. 2025).
